Reference: PMC13061240

Experiments:
[1] = target: beluga whale coronavirus (BwCoV) spike (S) glycoprotein ectodomain, 2P, GCN4 trimerization motif, Strep-tag (beluga whale coronavirus (BwCoV)); test: cryo-EM structure
[2] = target: bottlenose dolphin coronavirus (BdCoV) spike (S) glycoprotein ectodomain (23-1370), 2P, GCN4 trimeri (bottlenose dolphin coronavirus (BdCoV)); test: cryo-EM structure

Substance	stoichiometry N [1]	stoichiometry N [2]
beluga whale coronavirus (BwCoV) spike (S) glycoprotein ectodomain, 2P, GCN4 trimerization motif, Strep-tag (domain or fragment)	3	
bottlenose dolphin coronavirus (BdCoV) spike (S) glycoprotein ectodomain (23-1370), 2P, GCN4 trimeri (domain or fragment)		3
